Article PMC2885016

Target: human P-TEFb (Cdk9 (1-345)•Cyclin T1 (1-266)) (human) (UniProt P50750)
Assay: SDS-PAGE of dissolved crystals

Sequence of UniProt P50750 (P50750 1-345, chain 1 of 2): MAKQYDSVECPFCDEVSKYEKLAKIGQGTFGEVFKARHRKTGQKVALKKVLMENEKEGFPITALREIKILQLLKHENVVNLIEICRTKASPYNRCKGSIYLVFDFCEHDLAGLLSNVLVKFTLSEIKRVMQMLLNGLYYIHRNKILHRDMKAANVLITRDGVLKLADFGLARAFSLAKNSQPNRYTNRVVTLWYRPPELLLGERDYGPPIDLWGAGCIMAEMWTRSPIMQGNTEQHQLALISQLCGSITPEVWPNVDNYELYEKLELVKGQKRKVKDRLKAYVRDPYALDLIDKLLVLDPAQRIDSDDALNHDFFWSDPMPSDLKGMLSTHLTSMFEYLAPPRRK
Sequence of UniProt P50750 (O60563 1-266, chain 2 of 2, further chain): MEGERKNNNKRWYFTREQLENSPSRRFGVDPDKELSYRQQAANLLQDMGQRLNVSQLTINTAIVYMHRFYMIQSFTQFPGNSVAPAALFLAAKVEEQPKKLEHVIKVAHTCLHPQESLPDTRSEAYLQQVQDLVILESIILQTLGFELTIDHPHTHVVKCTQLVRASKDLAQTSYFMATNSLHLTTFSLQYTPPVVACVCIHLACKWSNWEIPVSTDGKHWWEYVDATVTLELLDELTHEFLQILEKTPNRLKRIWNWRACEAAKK

Q: With “HIV-1 Tat (1-86) (from UniProt P04608 1-86) (natural protein)” as the substance, how does the stoichiometry N read?
A: The stoichiometry N was 1.
